First the molecules themselves.
B1: Hsp90 co-chaperone Cdc37 (Schizosaccharomyces pombe (strain ATCC 38366 / 972)), O94740 (parent)
chain: MAIDYSKWDKLELSDDSDIEVHPNVDKKSFIRWRQRDIHEKRAVRKQKMEDIKGAMAMNRRLLSRISEMETVLEKESPSDPYVLLGSFLEAKKSEDMDSAIPGGMSYHHMLMSLLKVIKDAEDTTEEKSMDDSDKCLRRLKSHKERLLKLLEDAQKEYDTLEAESKNYITSEDLHLGFDSTYVQKKEPEKPKKTKTKKETIQVIESLNNPTPPTDFPGAKEQASTGNAPKNPVNENESEDEEGLSLSEDGKKFANIDFGDYSSSEEFLKEHLNILADEEESDAILLEAFNAELEGKPSLAKQYVHQALLISYCRQLGPNGLSIFFQKIKDPNHQSQRLFLEDVHNTYVRIHERSAAISKEQAESGEGVEQIQLCAVDPNTKLSITIPEAGSTDPETQKARAAFESFPPNLQKALMTNDLDKINVVLGKMAVENAEEVVEKLSSTGMLSIEEGIIDTTKGETIPQLS

In this test the parent is B1. The conditions noted are these: with cdk1_schpo cdc2, P04551.
Sequence of cdk1_schpo cdc2, P04551 (P04551 whole entry): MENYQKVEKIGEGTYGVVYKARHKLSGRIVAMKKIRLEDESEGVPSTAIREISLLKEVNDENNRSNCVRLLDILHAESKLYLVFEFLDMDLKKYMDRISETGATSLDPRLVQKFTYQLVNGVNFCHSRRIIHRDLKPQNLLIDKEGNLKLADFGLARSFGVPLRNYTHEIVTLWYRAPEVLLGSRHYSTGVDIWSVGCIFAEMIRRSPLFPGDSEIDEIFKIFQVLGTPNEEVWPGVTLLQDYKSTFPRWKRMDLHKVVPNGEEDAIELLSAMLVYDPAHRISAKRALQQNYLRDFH
For L285P, the “effect of a mutation on the interaction” value is “decreasing interaction”.

Take E287D: the “effect of a mutation on the interaction” value is “decreasing interaction”.

These data come from IntAct's records for PubMed 16390871.
